{
  "source": "the DeepSol protein solubility set",
  "test": "soluble on expression in E. coli; label from the status in PepcDB or PDB records",
  "data": [
    {"sequence": "MNRQIVRSALFVPATRPERIPKALASGADRVIVDLEDAVEEGLKVEARANLRRFLVDTPEARVLVRINAAEHPGHADDLALCRDHAGVIGLLLPKVESAAQVRHAAVASGKPVWPIVESARGLAALGEIAAAAGVERLSFGSLDLALDLDLNSGSNAAEQILGHARYALLLQTRLAGLAPPLDGVYPAIQNRAGLVEAVRFARDMGFGGLLCIHPSQVEPIHQTLMPSPAELEWARRVAEAGASGAGVFVVDGEMVDAPVLGRARRLLERAGEGG", "values": [
      {"measurement": "soluble on expression in E. coli", "result": "not soluble"}
    ]},
    {"sequence": "MSLGSIPNDIKVPLVYIEIDNSNALSGTPALAQKVLVIGQQLGTGTASPLTLNRITNSESQMDALFGKGSMLARSLKMFRKSNDYTDVYALGVADLSAGSAAKGEITIAATTAKAGVIALLIAGESVQVGVDEAATAATIATAMIAKINANTNLPVTAALKAATTETVELTAKWKGQTTNDIDIRYNYYDGEQLPQGVTLTVVEMTGGAGTPDMDAVIAAIPNEWYNHIVMPYNDTQSMNKLRDELVNRWGPLKMIEGIAYTAFRGTFAESGAFGVARNDYLFTCMGTNKAPHSPWEWAAAYAGQASYSLGIDPARPLQTLVMTSLLPPAKEIQWDPTERNLLLGDGIATYMVTPSGEVAIEREVSMYRENSYGDPDPSYLDITTPATLGYLRYSLRVMVTNRFPRHKLAGDDVLARLDPGQPVVTPKIMRNAMLELANNDWVPKGLMEDFDGFKETLEVYRDSSDQNRLNCVFKPDIVNQFRIFAALMQFKL", "values": [
      {"measurement": "soluble on expression in E. coli", "result": "not soluble"}
    ]},
    {"sequence": "MLKSSASAPAKAILFGEHAVVYSKPAIAAAIDRRVTVTVSESSSTHVTIPSLGIRHSSERPSGGILDYIGRCLELYHDASPLDIRVEMEIPAGSGLGSSAALTVALIGPLDRYHGRDHGPGETAARAHRVEVDVQGAASPLDTAISTYGGLVYLDSQRRVRQFEADLGDLVIAHLDYSGETARMVAGVAERFRRFPDIMGRIMDTVESITNTAYRELLRNNTEPLGELMNLNQGLLDSMGVSTRELSMMVYEARNAGAAGSKITGAGGGGSIIAHCPGCVDDVVTALNRNWKAMRAEFSVKGLI", "values": [
      {"measurement": "soluble on expression in E. coli", "result": "soluble"}
    ]},
    {"sequence": "AKNECHPERTDGCQHFCLPGQESYTCSCAQGYRLGEDHKQCVPHDQCACGVLTSEKRAPDLQDLPWQVKLTNSEGKDFCGGVIIRENFVLTTAKCSLLHRNITVKTYFNRTSQDPLMIKITHVHVHMRYDADAGENDLSLLELEWPIQCPGAGLPVCTPEKDFAEHLLIPRTRGLLSGWARNGTDLGNSLTTRPVTLVEGEECGQVLNVTVTTRTYCERSSVAAMHWMDGSVVTREHRGSWFLTGVLGSQPVGGQAHMVLVTKVSRYSLWFKQIMNAHHHHHH", "values": [
      {"measurement": "soluble on expression in E. coli", "result": "soluble"}
    ]},
    {"sequence": "MAAIDAALKAGEKILSIYEDPKSDFEIERKADNSPLTIADRKAHEAIVAILNETPFPVLSEEGKHMDYAVRRGWDTLWIVDPLDGTKEFIKRNGEFTVNIALVQNAVPVMGVIYVPVKKELYFAVEGTGAYKCSGIVGLEDEGVTLQQMIEKSERMPLADARDHFIAVASRSHLTPETETYIADLKKKHGNVELISSGSSIKICLVAEGKADVYPRFAPTMEWDTAAGHAIARAAGMEVYQAGKEEPLRYNKEDLLNPWFIVEAKRER", "values": [
      {"measurement": "soluble on expression in E. coli", "result": "soluble"}
    ]},
    {"sequence": "MGSDKIHHHHHHMQNATLPLPLQSPLLAASGENRVRHGFFTRQGGVSEGLYQGLNVGLGSHDEPEKVQENRRRVTQWFGLSADRLATVHQVHSPDVVVVDDNYDGNRPQADAMVTATPGFVLGVLSADCGPILFADAQAGVVGAAHAGWKGALFGVLENTIEAMVKLGASRERIAASLGPSISQDNYEVGPEYVARFTDIDPAYADYFAATERQGHALFDLKQFTIDRLTKAGVKAENLGLCTYPDEHRFYSYRRTTHRAEPDYGRQISAIAILED", "values": [
      {"measurement": "soluble on expression in E. coli", "result": "not soluble"}
    ]},
    {"sequence": "MADRRRTDDNKGAREVVLLLNIGSPDSPEEKDVARYLNSFLTDRRIITLPFLLRQLLVRGIITPFRKKSSAQKYRTVWDESTRSFPLISHTKAIARALAHTGREVHVAMRYGKPAVADVLKELPHGRSLVVLPLFPHYAMSSYETAVEHCKAEIRRLCPNLSFRVVQPFYAHEAYIRVLADNIRPYLTKPFDKLILSYHGIPRDHLDKTTRQALNLRHPEGCCTEEDPTANVCYRYQTYRTTALIREALGLAEEQVEQVFQSRVGHTEWLRPYLIERLSAWPQEETKRILIACPSFVCDCLESLEEVADHGQSIFKKAGGADFTYIPCLNSGANWIDALRNILEE", "values": [
      {"measurement": "soluble on expression in E. coli", "result": "not soluble"}
    ]},
    {"sequence": "MAESDWDTVTVLRKKGPTAAQAKSKQAILAAQRRGEDVETSKKWAAGQNKQHSITKNTAKLDRETEELHHDRVTLEVGKVIQQGRQSKGLTQKDLATKINEKPQVIADYESGRAIPNNQVLGKIERAIGLKLRGKDIGKPIEKGPRAK", "values": [
      {"measurement": "soluble on expression in E. coli", "result": "not soluble"}
    ]},
    {"sequence": "MSLRQDILLNNNWNFRFSHQVQGDTRRVDLPHTWNAQDALAGKIDYKRGIGNYEKALYIRPEWKGKRLFLRFDGVNSIADVFINRKHIGEHRGGYGAFIFEITDLVKYGEKNSVLVRANNGEQLDIMPLVGDFNFYGGIYRDVHLLITDETCISPLDYASPGVYLVQEVVSPQEAKVCAKVNLSNRAADGTAELQVLVTDGTKVICKESRNVSLKQGADILEQLPLLIQKPRLWNGCEDPFMYQVSISLHKDGKQIDSVTQPLGLRYYHTDPDKGFFLNGKHLPLHGVCRHQDRAEVGNALRPQHHEEDVALMREMGVNAIRLAHYPQATYMYDLMDKHGIVTWAEIPFVGPGGYADKGFVDQASFRENGKQQLIELIRQHYNHPSICFWGLFNELKEVGDNPVEYVKELNALAKQEDPTRPTTSASNQDGNLNFITENIAWNRYDGWYGSTPKTLATFLDRTHKKHPELRIGISEYGAGASIYHQQDSLKQPSASGWWHPENWQTYYHMENWKIIAERPFVWGTFVWNMFDFGAAHRTEGDRPGINDKGLVTFDRKVRKDAFYFYKANWNKQEPMIYLAEKRCRLRYQPEQTFMAFTTAPEAELFVNGVSCGKQKADTYSTVVWKNVKLTSGENIIRVTTPGKKPLTDEVTVEYKEDREGHHHHHH", "values": [
      {"measurement": "soluble on expression in E. coli", "result": "soluble"}
    ]},
    {"sequence": "SPNNSKHKKKQQRRQQEAQKKSRAKQIETDKKNDEFLDTELDEVSPLVIDDDMTEFKNMPKVELHAHLSGSLSPETIKLIMESDETRAEEIMKKYKLEKPENMTGVFDCFPVIHAILRKPEAIRIAIRQTIKEFEEDNCVYLELRTSPKETDFMTYEDYLQVCIESFEAAKHEFPRIKTFLIVSLDRRMPFETAAHILGLIGEAQQRTNVIVGVELSGDPHLDGRRLLKLFVAARRFHGLGITIHLAEVLQNMADVEDYLNLRPDRIGHGTFLHTDPYTEYLTNKYKIPLGENLIQLHLIFLFFLEICLSSNVYSKTTTNYRNSHFNYWRKRGVPVFICTDDKGVIPGATLTEEYYKAAITFDLSTEELIGINQDALLNSFAYKYNVTDLTETFRKINNNVLD", "values": [
      {"measurement": "soluble on expression in E. coli", "result": "not soluble"}
    ]},
    {"sequence": "MAHHHHHHMKAKGFHHSTPNFNTAEFTDAADPSDLANDIVTESAVAVDFARDIYGPWLVMTDDLQGELFVDHDGFVYYRPANGLGYGIGKLQVLDAGATGTAFTCQLESYSYQPTNTVVPQYGLTFDITGMVKRVTAKSSDYKTFSLVGVWRRSNRNKGAPALLPSQRSSSDAAVEGASAALSPESLDNQGALDGPGEKTSGQFNAAKLSPWDPSTAARPFAPNAELQSVFTQVFPERLRAESHVQRAEASRESPAARHLAGCAGKPSLMHLDLEQYATGKIPGIYYIPDYISVAEEAQILTFIHGTPEELKSKLTKRTCQEWGCTMCESCQKSFVSDANMPQWVQEFIDMQVYDGLFTPTTFPNSVRIHEYHQGDGIGPHCDGPIYVPMVTVLSLASSCLMSFYPKQPLYENHPMDHYNDTFKFGEGDIGRRVPLQSVVMEPRSLLIFSGEGYYHYPHGISDKAEEVLTPEVVGEVVNRRFLRDPHVQSIPRTYRASITTRNLMTRCSHQPARAEYAMKRAWYLYNHLPVPSELFTPAPQLPQQQQQPAGVSAGGSSGSRESSDASATRSPQKRVESFFPACAPPGTVAVDTELREAIYEMRARQEDLRNNVEELKQLVALSIPVQTTFQTETATILNHLSSSVLQLESKVDDLLEEVESAKRKSSTDT", "values": [
      {"measurement": "soluble on expression in E. coli", "result": "not soluble"}
    ]},
    {"sequence": "ARLKHLEDEPGHEDEGKRPLFHFSAVERIARIGVPSMIQQSIVSISMLMMQGLVNSYGSVFIAGYTAATKIDSLAMMPNMNFSNAMSSYTAQNIGAGKIERVKDGYKANM", "values": [
      {"measurement": "soluble on expression in E. coli", "result": "not soluble"}
    ]},
    {"sequence": "LGASWHRPDKCCLGYQKRPLPQVLLSSWYPTSQLCSKPGVIFLTKRGRQVCADKSKDWVKKLMQQLPVTAR", "values": [
      {"measurement": "soluble on expression in E. coli", "result": "soluble"}
    ]},
    {"sequence": "MGSSHHHHHHGKTIFVIVPTNEEQVAFLEALAKQDELNFDWQNPPTEPGQPVVILIPSDMVEWFLEMLKAKGIPFTVYVEEGGSENLYFQGGGGGGMPPPLPHRRATRACALVAAVALVLVLPTSRARTVGMRSMSAYTEAQQLHTRKFLDGFVQSMPDLHNIWTGDDFCAWKGVTCLRDGVSVSATNWVQLAVPPGRLPEVSSADVDVSQVFVTSISVRANGRNLSGTLPASWGLLQNLRKVRLESNSLTGSLPPEWSGLRSLRELYLSNNNLTGTLPASWGESMKSLAILSLDRNALAGTLPPEWGRMKSMQALVLESNQLSGTLPAEWRFMRAASTLMIGRNYLSGTLPHEWAEMSVMEWMDLHSNRLTGWLPAAWATMTLLNTLLLFDNGFTGTLPTEWARLEFLEELRMQDNVLVGTLPASWSAMVLMQVLDISENTLSGTLPVLWSSMQSLDTLSIRDNQLSGSLPIEWRTLPKIMHLHLEGNALCGCLPLNWTSRYVAVEVDEAVTSVNCATENACNDVNLDSISDKISSSCSSSTSPNGGRRR", "values": [
      {"measurement": "soluble on expression in E. coli", "result": "not soluble"}
    ]},
    {"sequence": "SLSGNYLPRNTLVESLGHAMLKLSGWKIEGQLPALDKFVVIGAHHTSNWDFVAFLAAKFVLRLNARWFGKHTLFNGPLGGLMRRWGGIPIQRHLKLNTVDQAIQAFREHREFMLIIAPEGTRKKVDRWRMGFYHIARGAGVPVVPAALDYENRRIVIGEPFWPTGNEDADLCSLIGFYRPFIPKKPHYAFLGDEG", "values": [
      {"measurement": "soluble on expression in E. coli", "result": "not soluble"}
    ]},
    {"sequence": "MAHHHHHHMSNPWNAKLVEELLFRQYEKGEDVSMLLPPPPALSVDQYLKEYEQSTKVLFAYVRNGPANALTPQNINNPRMYGGTPTKGSSSMQRTGNQGGATCATTSSSSACGVDSKAQMQRHPRGLDGSQSAAPSLPLTAGDAAAGQGSMAPPEHIRKRIEWPATVPTNSALKSNSRSRVANLTTKRVAAQERVDPDLIFMQNPEELPLHTIFAKYPKAVESIAALRGGSGDWREDTFTEEEEILYKRELRYSHMGPSQCGFFRSNLIQR", "values": [
      {"measurement": "soluble on expression in E. coli", "result": "not soluble"}
    ]},
    {"sequence": "MGVPAFFRWLTKKYPATVVNANEDRQRDQDGNRVPVDCTQPNPNFQEFDNLYLDMNGIIHPCTHPEDRPAPKNEDEMFALIFEYIDRIYSIVRPRRLLYMAIDGVAPRAKMNQQRSRRFRASKEMAEKEASIEEQRNRLMAEGIAVPPKKKEEAHFDSNCITPGTPFMARLADALRYYIHDRVTNDASWANIEIILSDANVPGEGEHKIMDYVRKQRGNPAHDPNTVHCLCGADADLIMLGIATHEANFNIIREEFVPNQPRACDLCGQYGHELKECRGAENETDLGDDYCKPEQREKNFIFLRIPVLREYLEKELSMPNLPFKFDVERALDDWVFLCFFVGNDFLPHLPSLEIREGAIDRLIKLYKEMVYQMKGYLTKDGIPELDRVEMIMKGLGRVEDEIFKRRQQDEERFQARMCREESPADIASRKRKAEQPLIKPEEEEDEGPKDDIRLYESGWKDRYYRAKFDVGSDDIEFRHRVAWAYVEGLCWVLRYYYQGCASWDWYFPYHYAPFASDFETVGEFQPDFTRPTKPFNPLEQLMSVFPAASKQHLPVEWQKLMIQDDSPIIDLYPADFRIDLNGKKYAWQGVALLPFVDETRLLATLQSVYPTLTAEEKQRNTRGPNRIFIGRNHKSFEFFQQVAESKSDDLVPLDPTLLNGVSGKIAYDSTATAPGLPFVSPVNHDECQDLPTNCGICVLYEDPEYPQDYIFPALRLDGAKEPEKTLKPDDWNDRRDGRYQPQVGFNRNAPRGSLDQSGHRQVHHYVRGGGGGGGGYRGNSYDDRRGGGGGGGGYNDRQDFGRNYGGRDGGGPQRYHDQQQQRQGGYQGGGYGGGYGGGGGGGGGGGGGSYHQPYNQDQRRGGRGGGGGPPGYQRPPYRGGGGGGYHGNSSWR", "values": [
      {"measurement": "soluble on expression in E. coli", "result": "not soluble"}
    ]}
  ]
}
